# Data as given in the DeepSol protein solubility set.
# Experiment: soluble on expression in E. coli; label from the status in PepcDB or PDB records
row,Sequence,soluble on expression in E. coli
1,GMDTNGVLYAANMTNALAKEIPESKWDIQLIPELGTLRKLFIHIVRVRDVYRDGLKTGSIKFPGRLASDEHRLLDELERSMEELVFEFKQTTFNSIKMGENYLSIMELLGTVIQHEGIHQGQYYVALKQSGINLPKQWVQDWHM,soluble
2,MRVDLERQQHQFLRRTYGPQHRLTTQQALTVMRVAAREQTRYSQRTTQCVAAHLLEQRAAVQQELQRARQLQSGNVDDALDSLTELKDTVDDVRATLVDSVSATCDLDLEVDDAVLEHHHHHH,not soluble
3,MTVIYQTTITRIGASAIDALSDQMLITFREGAPADLEEYCFIHCHGELKGALHPGLQFSLGQHRYPVTAVGSVAEDNLRELGHVTLRFDGLNEAEFPGTVHVAGPVPDDIAPGSVLKFESVKE,not soluble
4,GMKTQITTRDLVLEFIHALNTENFPAAKKRLNENFTFNGPMGHREGSERYMNDMEKMKFKYVVHKMFEEGNDVCLIYDINMNGKTIAASGLYHLEKGEITSLHVYFDPRPLFEE,soluble
5,MIQAVFERAEDGELRSAEITGHAESGEYGLDVVCASVSTLAINFINSIEKFAGYEPILELNEDEGGYLMVEIPKDLPSHQREMTQLFFESFFLGMANLSENYSEFVQTRVITEN,soluble
6,MNIAELYGKMGKHSWRIMDAIFKNLWDYEYVPLQLISSHARIGEEKARNILKYLSDLRVVQNRQKDYEGSTFTFIGLSLYSLHRLVRSGKVDAIGKLMGEGKESAVFNCYSEKFGECVVKFHKVGHTSFKKVKEKRDYGDLHFSVLAIRSARNEFRALQKLQGLAVPKVYAWEGNAVLMELIDAKELYRVRVENPDEVLDMILEEVAKFYHRGIVHGDLSQYNVLVSEEGIWIIDFPQSVEVGEEGWREILERDVRNIITYFSRTYRTEKDINSAIDRILQE,soluble
7,MSRPRKRLAGTSGSDKGLSGKRTKTENSGEALAKVEDSNPQKTSATKNCLKNLSSHWLMKSEPESRLEKGVDVKFSIEDLKAQPKQTTCWDGVRNYQARNFLRAMKLGEEAFFYHSNCKEPGIAGLMKIVKEAYPDHTQFEKNNPHYDPSSKEDNPKWSMVDVQFVRMMKRFIPLAELKSYHQAHKATGGPLKNMVLFTRQRLSIQPLTQEEFDFVLSLEEKEPS,soluble
8,MRQCTPFDTLLVFYSTWPVLKNILTNKIMPAELESVRTRQIVALRTMINLNEPVVNSGVREPVWKVLVLDRTGQDIISPLLPVKQLRELGVTLHLLIGARREPLTDVPAVYFVSPNDENIDLMSEDLKKAMYDSFYCNFISPLARPRLESLASAAVHGGAVSQVQKVVDQYLNFISLEDDLFVLRRYSENSTFSYHAMNSPGTSDVAVNAMLDSIADGLFAVCATMGIVPIIRCPKGNAAEMVAKKLDQKLRDNLRDSRNNLFTMDGVRMGLLQTSRPLLVIGDRSADLATMLHHTWTYQALMHDVLELDQNRVTISTSSTGKKKDYDMATGGSDKLWNNHKGSAFPTVAEAVQENLDDYRSKEDDIKKIKQALGLSGESEAADEALTNVLADTTAKLGSTVMSLPDLLESKRLIDLHTNIATTLLDVIKERKLDVSLSSSKSCCNTHRLVDLFYQPVTQFLSNINHQEDVLRVLIIAFLCQETVNQNGYDQMMNLLRERGIEESALKHVQKLKSISQLGSRAANSAHTEEHQGAGTKTISMFGKLLSHSSKFVMEGVKNLVPKEHNLPLTKMIDSLNTPPSSTGISSAVGINQMIGGSSQGPDIDDIYCFFDPKLMHQPTKETILLARQQSAQDVILFVVGGGNYVEYQNLVDYGKRKNLMRVTYGCTELVNPAQFCDQVSCCSLSLPLTDLSGDSPYFFCSPLEF,not soluble
9,MGSDKIHHHHHHMDLTQLRMFCLVAETGSVARAAEQLHRVPSNLTTRLRQLELELGTDLFIREKQRLRLSPIGHNFLCYAQRILALSEEAISMTRTGEPAGNFALGSMESTAATRLPTLLAAYHQRYPNVSLSLNTGTSGEIIERVRAGTLAAALVDGPVVYDELNGCSCFAEQLVLISDPSHSPITHARDASNDTLFAFRPSCSYRKRLENWFRQDGVVPGTIMEIHSYHAMLACVASGSGLAMLPYAVLESLPAGARVQVHELPPDIAAASTWLVWRRDAFGPNVEALKKLIIEQSAQSE,not soluble
10,MSLRFEGIYTPAVTPHTPDGDIDWAVFSEVLESLIEANVHGIIIGGSTGEYYAQTAEERLKLAAHAKDVMGNRVQLIIGTGAIRTEDAVLFAKDAKALKADAILVTTPPYALPTDQENAIHALTIDRAANMPIMLYNYPGRMGVQMNEDYLARVGKSKNVIAIKESSGEMGRVHLLAREFPHIALSCGWDDQALEFFAWGARSWVCAGSNFLPREHVALYEACVIEKNFDKGRQIMSAMMPLMHALDGGKFVQCIKFGCELNGLKVGDVRAPLRPLNAEDKRSLQTVIANVKEGHHHHHH,not soluble
11,MALELSDIRQQITQIDRSLLKLLSERHRLAFDVVRSKEISQKSLRDVEREQQLLQELVQFAENENYQLEAQYITSIFQKIIEDSVLTQQVYLQNKLNEQRNQNLHIAFLGKRGSYSNLAARNYAARYQKQFVELGCQSFEQVFEKVQTGEADFGVLPLENTTSGAINEVYDLLQHTDLSLVGELAYPIKHCVLVNDKTDLNQIDTLYSHPQVIQQCSQFIHSLDRVHIEYCESSSHAMQLVASLNKPNIAALGNEDGGKLYGLSVLKTNIANQENNITRFIVVAKEPREVSSQIPTKTLLLMTTSQQAGALVDALLVFKKHQINMTKLESRPIYGKPWEEMFYLEIEANIHHPDTKQALEELKNYSNYLKILGCYPSEIVKPVSV,not soluble
12,MQKKRFSKKYEVHYYEINSMQEATLLSLLNYMEDCAISHSTSAGYGVNELLAADAGWVLYRWLIKIDRLPKLGETITVQTWASSFERFYGNREFIVLDGRDNPIVKASSVWIYFNIKKRKPMRIPLEMGDAYGIDETRALEEPFTDFDFDFEPKVIEEFTVKRSDIDTNSHVNNKKYVDWIMETVPQQIYDNYKVTSLQIIYKKESSLGSGIKAGCVIDEQNTDNPRLLHKIWDKNTGLELVSAETIWQKIQS,soluble
13,MLNITEDEIDSISLLNNPLKDPSKRSIIIIDHSRNDRSPILIGLQGFFGTNRSFMNRYFNKVDFISVLEKIAEKAENDGFIIALPDTMTSLYGNQYINSPAVGNYEDFIVSDVLEYLFKRYGKRPVGLFGKSSGGFGAYTLAVRHPDKISGFVDVAGDSGFEYCYLPDFPAAIKYFRRYGVLEWYTYVKSKMNMSPEDMKVVNVLAMSAFYSPDQEAEMGIGLPFDTRTGLLKYDVWDKWRRLDPAFNISNNIDVLKDMAVFMQVGSRDDFHIDIGMEAMHNFLEKNGIVHFFETYDETHFDLDYLYLKSLPLLIELISD,not soluble
14,MSLTGETLFGTIELVGYRDNYGQIKIPRRPLNPGEKVYGVDYEFLSKFYKFDENTSINIGNLIGYDKGSNIVPVYLDVNKLVTEHLAVLAMTGSGKSYTVGRIIERLVAEMNGTVVVFDVHGEYGKAFEKGEIHFNNNLDFIEDEREKKSIQRIQENLIKMQNAGGGIKVYTPQIDSFDYKYSGKNHHLALQFDRFDMDDLSSILPGLTEAQERVLDVAIRYWKAKYNHPPRDIQDLTYLLSDEQGLEELKNWDNLTEGEAKALNNRSAAVASMKLTRVINEAKSFYTRAIGEPTDIYDMIGEKGNSVGRLVIIDLQGLSDDAKQIITALISSEIMRAASDKKRQIRPCFLVYEEGHNFAPAGIPSISKKIIKKIAAEGRKFGVGFAIISQRPSKLDPDVTSQCNTIITMRLKNPDDQRFIAKTSDMFSSSDIEELPSLSTGEALINGRSIPAPLLVKVGTKALIHGGESPEVIKEWGVFNGEGHHHHHH,not soluble
15,MGSDKIHHHHHHMLAICQLVKMKRICFYLKMQKGYMALNKKLKGDGEVLKDSFLAGAGKAKIVFSQDDFPIKQFTGIHDNLYIRVLLIDSNQRFAFVSIDLTSLTKDRIDFYKSLIHQLTSIDEGNIWVSVTHTFSAPHIPLESQKDDEEKIISMMLFKTSAALREAINQALLSMKPADIGFSYSSCPLNINRNIPTRLGWWLGRNDDGYSNHDVRTVTLKQENNEIISILYNFDVQASVMDNVSTKSGELLISSDLVGKASSDIENTFGKNSVAIFLPGSAGDQAPIFKGSNWKIMKNNRLVCSSIHEEAYSLVDQLGVKLSQSVQRAVFKTEKFADNCEIKINHYSVYLPEQRVKYSTKALRPSKKYQFEKPVIHFLSLLIFCT,not soluble
16,MTNTSFDNSTIVVGVAGGIAAYKSCHVVRGFKEDGANVVVVPTSAALNFVGKATFEALSGNPVSTTVFDAVDEVRHVNVGQHADLIVVAPATADLIARVAMGRADDLLTATLLVATCPIVLVPAMHAEMWSNAATRENVATLRRRGIIVMDPAHGRLTGADTGPGRLPDSDQIIDFAKTVARTKVMPRDLVGKKVL,not soluble
17,MSLTGNAQAATIADPSTLVVDTVGPVLTIGLNRPKKRNALNDGLMAALKDCLTDIPDQIRAVVIHGIGDHFSAGLDLSELRERDATEGLVHSQTWHRVFDKIQYCRVPVIAALKGAVIGGGLELACAAHIRVAEASAYYALPEGSRGIFVGGGGSVRLPRLIGVARMADMMLTGRVYSAAEGVVHGFSQYLIENGSAYDKALELGNRVAQNAPLTNFAVLQALPMIAEANPQTGLLMESLMATVAQSDQEAKTRIRAFLDHKTAKVREGHHHHHH,soluble
18,MGSDKIHHHHHHMPYERKIINDPVFGFINIPKGLLYDIVRHPLLQRLTRIKQVGLSSVVYPGAQHTRFQHSLGAFYLMSEAITQLTSKGNFIFDSEAEAVQAAILLHDIGHGPFSHVLEDTIVQGVSHEEISLMLMERMNKEMNGQLSLAIQIFKDEYPKRFLHQLVSGQLDMDRLDYLRRDSFYTGVTEGNIGSARIIKMLDVADDRLVIESKGIYSIENFLTARRLMYWQVYLHKTSVAYERMLISTLLRAKELASQGVELFASPALHFFLYNDINHTEFHNNPDCLENFIQLDDNDIWTALKVWSNHPDKVLSTLSLGMINRNIFKVENSAEPIGEDRIKELTLQISQQLGITLSEANYFVSTPSIEKNMYDPADDSIDIIYKDGTIKNIAEASDMLNISLLSKKVKKYYLCYQRLHR,not soluble
19,MEDKVDVLIIGGGASGVTSGIQSARMGANTLILEESTWLGGMLTSAGVSAVDGNYRLPAGLWGEFKNRLSDYYGGLDSLKTGWVSNVLFEPSVGNKILHEMVAAENNLKVWKQACLEEVKRTGDEWVAKVKVEGQGVKTVRAKVMIDATELGDVAKMCGVKYDIGLEHHHHHH,soluble
20,MYYGALSIRAEAWLIVSPEVTKIMAKEQTDRTTLDLFAHERRPGRPKTNPLSRDEQLRINKRNQLKRDKVRGLKRVELKLNAEAVEALNELAESRNMSRSELIEEMLMQQLAALRSQGIV,not soluble
21,MSGLTKIKPPKKARIGLYSAGLNTYWGQFEGLYDCLMGYNRFIEKRLSEWGEVFNFGMVDTEEKGREAGEFFNKNNVDIVFSHAATYYASATVLPVHQINNAPVIILNLQPTAEMAYDTTGTDRWLAQCVGCSIPEISNAFNRAGITFRAVNGLLGLTETPDFAKADEVTCERPEAVRAWKQIEEWCRAAAVKRNLQWARFGFLGGYYSGMLDMYSDFTMLQAQTGIDIEVLEMSDLDAYLKTVTEEEVQEKLKEIQDFFEISGDSPSDPIAKKPTEEQLTWSAKVAIAQEKMVRERNLDSVSYYYHGRDDYLEEVQSGFIVGFSLLNAQGIACAGEGDIKTALAMKIADICGTGGSFCEIVAADFNRDTMILGHDGPFHFAISKGKPILRGMGVYHGKRGSGVSVEAKVRPGAVTTLGVTQTGDGRLKFNISEGEAIDAPILLNGNTSTHIRFSQKPAEYMDRWFQEAPTHHLALSVGHNAELFKKIAELMDIPYAIY,soluble
